This is an account of results in the RNAGym collection of RNA variant scans (doi:10.1021/acssynbio.7b00057).

To fix the notation:
B1: Pistol ribozyme (parent)
chain: GGGUCGUUGUUCCAUAAUCGCGUGGAUAUGGCACGCAAGUUUCUACCGGGCACCGUAAAUGUCCGACUGGAGCCGUUCGGGCGGCUAUAAACAGACCUCAGGCCCGAAGCGUGGCGGCACCUGCCGCCGGUGGUAAAAAAGAUCGGAAGAGCACACGUCU

In the data set the parent is B1. Kind of data set: aptazyme ON/OFF ratio, guanine; higher = stronger switching; co-transcriptional cleavage with and without guanine.
On to GGGUCGACUUUCCAUAAUCGCGUGGAUAUGGCACGCAAGUUUCUACCGGGCACCGUAAAUGUCCGACUGGAGCCGUUCGGGCGGCUAUAAACAGACCUCAGGCCCGAAGCGUGGCGGCACCUGCCGCCGGUGGUAAAAAAGAUCGGAAGAGCACACGUCU, for which the “aptazyme ON/OFF ratio” value worked out at 1.94.
In the case of GGGUCGACCUGCCAUAAUCGCGUGGAUAUGGCACGCAAGUUUCUACCGGGCACCGUAAAUGUCCGACUGGAGCCGUUCGGGCGGCUAUAAACAGACCUCAGGCCCGAAGCGUGGCGGCACCUGCCGCCGGUGGUAAAAAAGAUCGGAAGAGCACACGUCU, the “aptazyme ON/OFF ratio” value was 1.09.
The figure for GGGUCGACCUCUCAUAAUCGCGUGGAUAUGGCACGCAAGUUUCUACCGGGCACCGUAAAUGUCCGACUGGAGCCGUUCGGGCGGCUAUAAACAGACCUCAGGCCCGAAGCGUGGCGGCACCUGCCGCCGGUGGUAAAAAAGAUCGGAAGAGCACACGUCU is 1.03; for GGGUCGACUUUAAAUAAUCGCGUGGAUAUGGCACGCAAGUUUCUACCGGGCACCGUAAAUGUCCGACUGGAGCCGUUCGGGCGGCUAUAAACAGACCUCAGGCCCGAAGCGUGGCGGCACCUGCCGCCGGUGGUAAAAAAGAUCGGAAGAGCACACGUCU it is 1.15; for GGGUCGACUUUAUAUAAUCGCGUGGAUAUGGCACGCAAGUUUCUACCGGGCACCGUAAAUGUCCGACUGGAGCCGUUCGGGCGGCUAUAAACAGACCUCAGGCCCGAAGCGUGGCGGCACCUGCCGCCGGUGGUAAAAAAGAUCGGAAGAGCACACGUCU it is 1.27.
As for GGGUCGACUUUAGAUAAUCGCGUGGAUAUGGCACGCAAGUUUCUACCGGGCACCGUAAAUGUCCGACUGGAGCCGUUCGGGCGGCUAUAAACAGACCUCAGGCCCGAAGCGUGGCGGCACCUGCCGCCGGUGGUAAAAAAGAUCGGAAGAGCACACGUCU, the figure is 1.19; as for GGGUCGACCUGAUAUAAUCGCGUGGAUAUGGCACGCAAGUUUCUACCGGGCACCGUAAAUGUCCGACUGGAGCCGUUCGGGCGGCUAUAAACAGACCUCAGGCCCGAAGCGUGGCGGCACCUGCCGCCGGUGGUAAAAAAGAUCGGAAGAGCACACGUCU, 1.11.
The figure for GGGUCGACCUGAAAUAAUCGCGUGGAUAUGGCACGCAAGUUUCUACCGGGCACCGUAAAUGUCCGACUGGAGCCGUUCGGGCGGCUAUAAACAGACCUCAGGCCCGAAGCGUGGCGGCACCUGCCGCCGGUGGUAAAAAAGAUCGGAAGAGCACACGUCU is 1.11; for GGGUCGACCUGAGAUAAUCGCGUGGAUAUGGCACGCAAGUUUCUACCGGGCACCGUAAAUGUCCGACUGGAGCCGUUCGGGCGGCUAUAAACAGACCUCAGGCCCGAAGCGUGGCGGCACCUGCCGCCGGUGGUAAAAAAGAUCGGAAGAGCACACGUCU it is 1.31; for GGGUCGACCUGUGAUAAUCGCGUGGAUAUGGCACGCAAGUUUCUACCGGGCACCGUAAAUGUCCGACUGGAGCCGUUCGGGCGGCUAUAAACAGACCUCAGGCCCGAAGCGUGGCGGCACCUGCCGCCGGUGGUAAAAAAGAUCGGAAGAGCACACGUCU it is 1.19.
Regarding GGGUCGACCUGUUAUAAUCGCGUGGAUAUGGCACGCAAGUUUCUACCGGGCACCGUAAAUGUCCGACUGGAGCCGUUCGGGCGGCUAUAAACAGACCUCAGGCCCGAAGCGUGGCGGCACCUGCCGCCGGUGGUAAAAAAGAUCGGAAGAGCACACGUCU, the “aptazyme ON/OFF ratio” value is 1.27.
In the case of GGGUCGACCUGUAAUAAUCGCGUGGAUAUGGCACGCAAGUUUCUACCGGGCACCGUAAAUGUCCGACUGGAGCCGUUCGGGCGGCUAUAAACAGACCUCAGGCCCGAAGCGUGGCGGCACCUGCCGCCGGUGGUAAAAAAGAUCGGAAGAGCACACGUCU, the “aptazyme ON/OFF ratio” value was found to be 1.17.
In the case of GGGUCGACUUUACAUAAUCGCGUGGAUAUGGCACGCAAGUUUCUACCGGGCACCGUAAAUGUCCGACUGGAGCCGUUCGGGCGGCUAUAAACAGACCUCAGGCCCGAAGCGUGGCGGCACCUGCCGCCGGUGGUAAAAAAGAUCGGAAGAGCACACGUCU, the “aptazyme ON/OFF ratio” value turned out to be 1.26.
Regarding GGGUCGACUUUGCAUAAUCGCGUGGAUAUGGCACGCAAGUUUCUACCGGGCACCGUAAAUGUCCGACUGGAGCCGUUCGGGCGGCUAUAAACAGACCUCAGGCCCGAAGCGUGGCGGCACCUGCCGCCGGUGGUAAAAAAGAUCGGAAGAGCACACGUCU, the “aptazyme ON/OFF ratio” value came to 1.45.
For GGGUCGACUUUUCAUAAUCGCGUGGAUAUGGCACGCAAGUUUCUACCGGGCACCGUAAAUGUCCGACUGGAGCCGUUCGGGCGGCUAUAAACAGACCUCAGGCCCGAAGCGUGGCGGCACCUGCCGCCGGUGGUAAAAAAGAUCGGAAGAGCACACGUCU, the “aptazyme ON/OFF ratio” value stood at 1.33.
The figure for GGGUCGACCUGCAAUAAUCGCGUGGAUAUGGCACGCAAGUUUCUACCGGGCACCGUAAAUGUCCGACUGGAGCCGUUCGGGCGGCUAUAAACAGACCUCAGGCCCGAAGCGUGGCGGCACCUGCCGCCGGUGGUAAAAAAGAUCGGAAGAGCACACGUCU is 1.05; for GGGUCGACCUGCUAUAAUCGCGUGGAUAUGGCACGCAAGUUUCUACCGGGCACCGUAAAUGUCCGACUGGAGCCGUUCGGGCGGCUAUAAACAGACCUCAGGCCCGAAGCGUGGCGGCACCUGCCGCCGGUGGUAAAAAAGAUCGGAAGAGCACACGUCU it is 1.1; for GGGUCGACCUGCGAUAAUCGCGUGGAUAUGGCACGCAAGUUUCUACCGGGCACCGUAAAUGUCCGACUGGAGCCGUUCGGGCGGCUAUAAACAGACCUCAGGCCCGAAGCGUGGCGGCACCUGCCGCCGGUGGUAAAAAAGAUCGGAAGAGCACACGUCU it is 1.13.
